Patent US20200407456A1 (AP BIOSCIENCES, published 2020)

Legend:
[1] = biological target: T1, CD137 expressed on cells (HEK-293F/CD137 cells); PMA/ionomycin-activated Jurkat cells; CD137 reporter HEK293 … (UniProt Q07011 24-255, limits assumed); assay: flow cytometry on HEK-293F/CD137 cells, antibody 50 µg/ml, anti-human Fc-A488
T1 construct: whole, on cells; One entry is used for CD137 on transfected HEK293/293F cells and for CD137 induced on Jurkat cells; also called 293F cells stably expressing CD137; CD137-overexpressing HEK-293F cells
T1 sequence (Q07011 24-255 limits assumed): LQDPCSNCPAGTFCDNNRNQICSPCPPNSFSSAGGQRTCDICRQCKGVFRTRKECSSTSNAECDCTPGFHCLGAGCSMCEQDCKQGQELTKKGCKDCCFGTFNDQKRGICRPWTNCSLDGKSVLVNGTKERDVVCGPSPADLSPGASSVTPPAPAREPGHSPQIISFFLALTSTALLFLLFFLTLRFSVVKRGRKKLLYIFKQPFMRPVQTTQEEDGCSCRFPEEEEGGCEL

[2] = biological target: T2, recombinant human CD137-ECD-Fc (APBio Inc.) (human, UniProt Q07011 24-186); assay: ELISA on coated human CD137-IgG4 Fc
T2 construct: extracellular domain; Made by APBio; also called CD137-Fc recombinant protein; recombinant CD137/Fc; not shown: IgG4 Fc
T2 sequence (Q07011 24-186): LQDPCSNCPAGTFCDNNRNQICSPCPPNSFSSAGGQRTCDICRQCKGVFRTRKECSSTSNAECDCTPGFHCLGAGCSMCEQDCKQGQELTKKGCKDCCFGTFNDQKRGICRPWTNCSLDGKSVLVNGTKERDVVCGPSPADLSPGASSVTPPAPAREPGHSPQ

B1: anti-CD137 antibody clone 31 (antibody, human IgG4 S228P, lambda, V domains shown)
VH: not shown
VL: QSALTQPASVSGSPGQSITISCTGTSSDVGAYNFVSWYQQRPGKAPELMIYDVSDRPSGVSNRFSGSKSGNTASLTISGLQTEDEADYYCSSYTSSITRYVFGTGTKVTVLG
notes: also called CD137 #31; anti-CD137#31
What does the source list for B1?
binding result [1]: binds; binding result [2]: binds

B2: anti-CD137 antibody clone 15 (antibody, human IgG4 S228P, lambda, V domains shown)
VH: QVQLVQSGAEVKKPGSSVKVSCKASGGTFSSYAISWVRQAPGQGLEWMGRIIPILGIANYAQKFQGRVTITADKSTSTAYMELSSLRSEDTAVYYCASDLYQLLFPYYYGMDVWGQGTTVTVSS
VL: QLVLTQPPSASASLGASVTLTCTLSSGYSNYKVDWYQQRPGKGPRFVMRVGTGGIVGSKGDGIPDRFSVLGSGLNRYLTIKNIQEEDESDYHCGADHGSGSNLFWVFGGGTKLTVLG
notes: also called CD137 #15; anti-CD137#15
Does B2 bind [1]?
Result: binds

B3: anti-CD137 antibody clone 54 (antibody, human IgG4 S228P, lambda, V domains shown)
VH: QVQLVQSGAEVKKPGSTVKVSCKASGGTFSSYAISWVRQAPGQGLEWMGRIIPILGIANYAQKFQGRVTITADKSTSTAYMELSSLRSEDTAVYYCASPPYYDSSGYYPLGAFDIWGQGTMVTVSS
VL: SYELTQPPSVSVSPGQTASITCSGDKLGEKYASWYQQKAGQSPILVIYQDSKRPSGIPERFSGSNSGNTATLTISGLQAGDEADYYCQAWDGSSTYVFGTGTKVTVFG
notes: also called CD137 #54; CD137#54
Does B3 bind [1]?
Result: binds

Does B3 bind [2]?
Result: binds
